Test results as given in paper PMC3826083.
pKd: −log10 of the molar value.

Legend:
[1] = molecular target: mCherry-R125I; assay: fluorescence polarisation
[2] = molecular target: mCherry-R125I/T127V; assay: fluorescence polarisation

mCherry-R125I gave a pKd [1] of 4.46.

Substance mCherry-R125I/T127V has a pKd [2] of 7.04.
